For four molecules, Kd, IC50 and Ki results are on record in publication PMC4742067 (PLoS ONE, 2016).

Experiment [1] addresses bradykinin B1 receptor (Homo sapiens) (UniProt P46663). In words: radioligand binding. The settings on record: cited from earlier work.
Experiment [2] has as its target T1, human B1R C-terminally tagged with FLAG (hB1R-FLAG) (human, UniProt P46663 1-353).
T1 construct: also called human B1R-FLAG; bradykinin B1 receptor; not shown: FLAG, C-terminal, kept
T1 sequence (looked up): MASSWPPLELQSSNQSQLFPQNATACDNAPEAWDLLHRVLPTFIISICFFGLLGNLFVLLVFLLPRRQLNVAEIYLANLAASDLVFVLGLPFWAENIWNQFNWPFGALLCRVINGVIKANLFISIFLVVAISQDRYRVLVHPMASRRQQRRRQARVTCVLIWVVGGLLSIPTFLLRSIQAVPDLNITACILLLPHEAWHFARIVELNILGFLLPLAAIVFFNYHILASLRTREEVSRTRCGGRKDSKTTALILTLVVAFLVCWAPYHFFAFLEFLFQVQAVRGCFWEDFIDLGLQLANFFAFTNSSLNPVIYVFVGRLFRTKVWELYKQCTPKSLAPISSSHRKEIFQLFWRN
Kind of experiment: radioligand binding; competition of dilutions of a producer-cell lysate of known EGFP-S4-P1 concentration (GFP ELISA) with 1 nM [^3H]Lys-des-Arg^9-BK (bought radioligand) on intact HEK 293a cells expressing hB1R-FLAG; Ki by the Cheng-Prusoff correction. The conditions noted are these: partners not purified. For orientation: An ELISA detects its analyte on a solid surface through an enzyme-linked reagent.

Experiment [3] has as its target T1, human B1R C-terminally tagged with FLAG …. Kind of experiment: radioligand binding; competition of unlabeled pure peptides with 1 nM [^3H]Lys-des-Arg^9-BK on intact, adherent HEK 293a cells (24-well plates) transiently expressing hB1R-FLAG; one-site competition fit (series of Fig 2 and the Lys-des-Arg^9-BK curve of Fig 7). The conditions noted are these: one partner purified.

As a reminder, the Kd is a measure of binding affinity in units of concentration. Turning to “Lys-des-Arg9-bradykinin (from UniProt P01042)”, the Kd in experiment [1] was 0.35 nM.

B1: EGFP-S4-P1 (EGFP-(NG)15-Lys-des-Arg^9-BK) (ligand)
chain: NGNGNGNGNGNGNGNGNGNGNGNGNGNGNGKRPPGFSPF
notes: also called EGFP-(Asn-Gly)15-Lys-des-Arg^9-BK
As a reminder, the IC50 is the concentration that inhibits the measured activity by half. A low value points to higher potency. As usually defined, the Ki is the dissociation constant of the complex between target and ligand, obtained from inhibition or displacement. In the case of B1, in experiment [2], the IC50 is 25.5 nM and the Ki is 6.6 nM. On to NGNGNGNGNGKRPPGFSPF (also called (Asn-Gly)5-Lys-des-Arg^9-BK) [synthetic S3-P1], for which, in experiment [3], the IC50 was 75.1 nM. The same measure, in the same setting: then NGNGNGNGNGKRPPGFSPL [synthetic S3-P2], with 663 nM.
